The values that follow come from US12427210B2 (3B PHARMACEUTICALS GMBH, dated 2025).

The target of assay [1] is Recombinant human FAP (R&D systems, #3715-SE) (human). Briefly: SPR (Biacore T200), rhFAP captured by anti-FAP antibody, single cycle kinetics; category A = pKD values >8.0.
In assay [2] the target is human fibroblast activation protein (FAP) on human WI-38 fibroblasts (human). Briefly: competitive FACS binding on FAP-expressing WI-38 cells against 3 nM Cy5-labeled compound; category A = pIC50 values >8.0.

Recombinant human FAP (R&D systems, #3715-SE) (human), sequence (chain, as listed by the source limits assumed): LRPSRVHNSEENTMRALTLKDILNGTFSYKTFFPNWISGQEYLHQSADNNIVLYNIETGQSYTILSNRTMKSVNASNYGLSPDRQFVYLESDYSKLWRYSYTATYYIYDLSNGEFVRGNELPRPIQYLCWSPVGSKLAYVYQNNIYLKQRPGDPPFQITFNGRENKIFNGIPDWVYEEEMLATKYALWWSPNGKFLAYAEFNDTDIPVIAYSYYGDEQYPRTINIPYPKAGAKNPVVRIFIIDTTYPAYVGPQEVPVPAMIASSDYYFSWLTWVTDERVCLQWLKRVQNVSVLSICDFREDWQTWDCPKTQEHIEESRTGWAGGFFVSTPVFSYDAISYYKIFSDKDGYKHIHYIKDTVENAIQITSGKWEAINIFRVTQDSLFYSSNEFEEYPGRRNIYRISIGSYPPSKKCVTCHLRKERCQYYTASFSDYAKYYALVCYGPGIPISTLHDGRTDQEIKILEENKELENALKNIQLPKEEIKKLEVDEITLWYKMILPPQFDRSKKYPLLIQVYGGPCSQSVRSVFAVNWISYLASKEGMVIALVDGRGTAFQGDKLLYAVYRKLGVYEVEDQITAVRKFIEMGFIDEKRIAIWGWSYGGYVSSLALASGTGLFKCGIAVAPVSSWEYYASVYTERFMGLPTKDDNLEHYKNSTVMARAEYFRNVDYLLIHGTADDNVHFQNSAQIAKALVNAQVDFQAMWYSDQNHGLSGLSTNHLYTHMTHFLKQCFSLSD

B1: Hex-[Cys(tMeBn(LuDOTA-AET))-Pro-Pro-Thr-Gln-Phe-Cys]-OH (3BP-3624) (peptide)
peptide: CPPTQFC
modifications: N-terminal hexanoyl (Hex); Cys1 and Cys7 cyclised through tMeBn carrying LuDOTA-AET (lutetium complex); free C-terminal acid (-OH)
With B1, in assay [1], the “pKD Category” value was > 8 pKD.

B2: Hex-[Cys(tMeBn(EuDOTA-PP))-Pro-Pro-Thr-Gln-Phe-Cys]-Asp-NH2 (3BP-3661) (peptide)
peptide: CPPTQFCD
modifications: N-terminal hexanoyl (Hex); Cys1 and Cys7 cyclised through tMeBn carrying EuDOTA-PP (europium complex); C-terminal amide
Take B2: the “pIC50 Category (FACS)” value in assay [2] is > 8 pIC50.

B3: Hex-[Cys(tMeBn(DOTA-AET))-Pro-Pro-Thr-Gln-Phe-Cys]-OH (3BP-3554) (peptide)
peptide: CPPTQFC
modifications: N-terminal hexanoyl (Hex); Cys1 and Cys7 cyclised through tMeBn carrying DOTA-AET; free C-terminal acid (-OH)
Consider B3, for which, in assay [1], the “pKD Category” value is > 8 pKD.

B4: Hex-[Cys(tMeBn(GaDOTA-AET))-Pro-Pro-Thr-Gln-Phe-Cys]-OH (3BP-3949) (peptide)
peptide: CPPTQFC
modifications: N-terminal hexanoyl (Hex); Cys1 and Cys7 cyclised through tMeBn carrying GaDOTA-AET (gallium complex); free C-terminal acid (-OH)
In the case of B4, the “pKD Category” value in assay [1] was > 8 pKD.

B5: Hex-[Cys(tMeBn(InDOTA-PP))-Pro-Pro-Thr-Gln-Phe-Cys]-Asp-NH2 (3BP-3590) (peptide)
peptide: CPPTQFCD
modifications: N-terminal hexanoyl (Hex); Cys1 and Cys7 cyclised through tMeBn carrying InDOTA-PP (indium complex); C-terminal amide
Take B5: the “pKD Category” value in assay [1] was > 8 pKD. Also, the “pIC50 Category (FACS)” value in assay [2] was > 8 pIC50.

B6: Hex-[Cys(tMeBn(DOTA-PP))-Pro-Pro-Thr-Gln-Phe-Cys]-Asp-NH2 (3BP-3407) (peptide)
peptide: CPPTQFCD
modifications: N-terminal hexanoyl (Hex); Cys1 and Cys7 cyclised through tMeBn carrying DOTA-PP; C-terminal amide
Consider B6, for which the “pKD Category” value in assay [1] is > 8 pKD. Further, in assay [2], the “pIC50 Category (FACS)” value was > 8 pIC50.

B7: Hex-[Cys(tMeBn(GaDOTA-PP))-Pro-Pro-Thr-Gln-Phe-Cys]-Asp-NH2 (3BP-3592) (peptide)
peptide: CPPTQFCD
modifications: N-terminal hexanoyl (Hex); Cys1 and Cys7 cyclised through tMeBn carrying GaDOTA-PP (gallium complex); C-terminal amide
Regarding B7, the “pKD Category” value in assay [1] is > 8 pKD. Moreover, in assay [2], the “pIC50 Category (FACS)” value was > 8 pIC50.

B8: Hex-[Cys(tMeBn(InDOTA-AET))-Pro-Pro-Thr-Gln-Phe-Cys]-OH (3BP-3623) (peptide)
peptide: CPPTQFC
modifications: N-terminal hexanoyl (Hex); Cys1 and Cys7 cyclised through tMeBn carrying InDOTA-AET (indium complex); free C-terminal acid (-OH)
For B8, the “pKD Category” value in assay [1] is > 8 pKD.

B9: Hex-[Cys(tMeBn(LuDOTA-PP))-Pro-Pro-Thr-Gln-Phe-Cys]-Asp-NH2 (3BP-3591) (peptide)
peptide: CPPTQFCD
modifications: N-terminal hexanoyl (Hex); Cys1 and Cys7 cyclised through tMeBn carrying LuDOTA-PP (lutetium complex); C-terminal amide
Consider B9, for which, in assay [1], the “pKD Category” value is > 8 pKD. In addition, the “pIC50 Category (FACS)” value in assay [2] was > 8 pIC50.
